Legend:
[1] = Saturation mutagenesis of SEQ ID NO:109: dicamba decarboxylation activity of point mutants (carbon dioxide released); conditions: decarboxylation activity (carbon dioxide released) of point mutant compared with unmutated backbone protein; backbone SEQ ID NO: 109
[2] = Shuffled variant libraries: 14CO2 capturing assay in 384-well format; conditions: decarboxylation activity (carbon dioxide released) compared with unmutated backbone protein SEQ ID NO 133 (DDEC0201)

Molecule | Fold Activity [1] | Fold Activity [2]
210 (protein, Dicamba decarboxylase variant) MAQGKVALEEHFAIPETLQDSAGFVPGDYWKELQHRLLDIQDTRLKLMDAHGIGTMILSLAAPAVQAIPDRRKAIEIARRANDFLAEECAKRPDRFLAFAALPLQDPDAATEELQRCVNDLGFVGALVNGFSVEGDGQTPLYYDLPQYRPFWGEVEKLDVPFYLHPRNPLPQDSRIYDGHPWLLGPTWAFAQETAVHALRLMASGLFDEHPRLNIILGHMGEGLPYMMYRIDHRIAWVKLPPRYPAKRRFMDYFNENFHITTSGNFRTQTLIDAILEIGADRILFSTDWPFENIDHAADWFNATSIAEADRVKIGRTNARRLFKLDGD | 1.8 | 1.3
252 (protein, Dicamba decarboxylase variant) MAQGKVALEEHFAIPETLQDSAGFVPGDYWKELQHRLLDIQDTRLRLMDAHGIGTMILSLAAPGVQAIPDRRKAIEIARRANDFLAEECAKRPDRFLAFAALPLQDVDAASEELQRCVNDLGFVGALVNGFSQEGDGQTPLYYDLPQYRPFWGEVEKLDVPFYLHPRNPLPQDSRIYDGHPWLLGPTWAFAQETAVHALRLMASGLFDEHPRLNIILGHMGEGLPYMMYRIDHRIAWVKLPPRYPAKRRFMDYFNENFHITTSGNFRTQTLIDAILEIGADRILFSTDWPFENIDHAADWFNATSIAEADRVKIGRTNARRLFKLDGA | 0.7 | 0.9
255 (protein, Dicamba decarboxylase variant) MAQGKVALEEHFAIPETLQDSAGFVPGDYWKELQHRLLDIQDTRLRLMDAHGIETMILSLAAVGVQAIPDRRKAIEIARRANDFLAEECAKRPDRFLAFAALPLQDPDAATEELQRCVNDLGFVGALVNGFSQEGDGQTPLYYDLPQYRPFWGEVEKLDVPFYLHPRNPLPQDSRIYDGHPWLLGPTWAFAQETAVHALRLMASGLFDEHPRLNIILGHMGEGLPYMMYRIDHRIAWVHPPPRYPAKRRSMDYFNENFHITTSGNFRTQTLIDAILEIGADRILFSTDWPFENIDHAADWFNATSIAEADRVKIGRTNARRLFKLDGD | 1.1 | 1.0
248 (protein, Dicamba decarboxylase variant) MAQGKVALEEHFAIPETLQDSAGFVPSEYLKELQHRLLDIQDTRLKLMDAHGIETMILSLAAPAVQAIPDRRKAIEIARRANDFLAEECAKRPDRFLAFAALPLQDPDAATEELQRTVNTLGFVGALVNGFSVEGDGQTPLYYDLPQYRPFWGEVEKLDVPFYLHPRNPLPQDSRIYDGHPWLLGPTWAFAQETAVHALRLMASGLFDEHPRLNIILGHMGEGLPYMMYRIDHRIAWVHEPPRYPAKRRFMDYFNENFHITTSGNFRTQTLIDAILEIGADRILFSTDWPFENIDHAADWFNATSIAEADRVKIGRTNARRLFKLDLD | 2.3 | 1.5
206 (protein, Dicamba decarboxylase variant) MAQGKVALEEHFAIPETLQDSAGFVPGDYWKELQHRLLDIQDTRLKLMDAHGIETMILSLAAPAVQAIPDRRKAIEIARRANDFLAEECAKRPDRFLAFAALPMQDVDAASEELQRCVNDLGFVGALVNGFSQEGDGQTPLYYDLPQYRPFWGEVEKLDVPFYLHPRNPLPQDSRIYDGHPWLLGPTWAFAQETAVHALRLMASGLFDEHPRLNIILGHLGEGLPYMMYRIDHRIAWVHEPPRYPAKRRFMDYFNENFHITTSGNFRTQTLIDAILEIGADRILFSTDWPFENIDHAAAWFNATSIAEADRLKIGRTNARRLFKLDLD | 1.7 | 1.3
208 (protein, Dicamba decarboxylase variant) MAQGKVALEEHFAIPETLQDSAGFVPSDYLKELQHRLLDIQDTRLKLMDAHGIETMILSLAAPAVQAIPDRRKAIEIARRANDFLAEECAKRPDRFLAFAALPLQDPDAATEELQRCVNDLGFVGALVNGFSVEGDGQTPLYYDLPQYRPFWGEVEKLDVPFYLHPRNPLPQDSRIYDGHPWLLGPTWAFAQETAVHALRLMASGLFDEHPRLNIILGHLGEGLPYMMYRIDHRIAWVHEPPRYPAKRRFMDYFNENFHITTSGNFRTQTLIDAILEIGADRILFSTDWPFENIDHAADWFNATSIAEADRLKIGRTNARRLFKLDLD | 1.5 | 2.2
249 (protein, Dicamba decarboxylase variant) MAQGKVALEEHFAIPETLQDSAGFVPGDYWKELQHRLLDIQDTRLKLMDAHRIETMILSLAAPAVQAIPDRRKAIEIARRANDILAEECAKRPDRFLAFAALPMQDVDAATEELQRCVNDLGFVGALVNGFSQEGDGQTPLYYDLPQYRPFWGEVEKLDVPFYLHPRNPLPQDSRIYDGHPWLLGPTWAFAQETAVHALRLMASGLFDEHPRLNIILGHMGEGLPYMMYRIDHRIAWVHQPPRYPAKRRFMDYFNENFHITTSGNFRTQTLIDAILEIGADRILFSTDWPFENIDHAADWFNATSIAEADRVKIGRTNARRLFKLDGD | 2.6 | 0.9
251 (protein, Dicamba decarboxylase variant) MAQGKVALEEHFAIPETLQDSAGFVPGDYWKELQHRLLDIQDTRLKLMDAHGIDTMILSLAAPGVQAIPDRRKAIEIARRANDILAEECAKRPDRFLAFAALPLQDPDAATEELQRCVNDLGFVGALVNGFSQEGDGQTPLYYDLPQYRPFWGEVEKLDVPFYLHPRNPLPQDSRIYDGHPWLLGPTWAFAQETAVHALRLMASGLFDEHPRLNIILGHMGEGLPYMMYRIDHRIAWVQEPPRYPAKRRFMDYFNENFHITTSGNFRTQTLIDAILEIGADRILFSTDWPFENIDHAADWFNATSIAEADRVKIGRTNARRLFKLDLD | 1 | 1.2
254 (protein, Dicamba decarboxylase variant) MAQGKVALEEHFAIPETLQDSAGFVPGDYWKELQHRLLDIQDTRLKLMDAHGIETMILSLAAPAVQAIPDRRQAIEIARRANDFLAEECAKRPDRFLAFAALPLQDPDAASEELQRCVNDLGFVGALVNGFSVEGDGQTPLYYDLPQYRPFWGEVEKLDVPFYLHPRNPLPQDSRIYDGHPWLLGPTWAFAQETAVHALRLMASGLFDEHPRLNIILGHLGEGLPYMMYRIDHRIAWVHPPPRYPAKRRFMDYFNENFHITTSGNFRTQTLIDAILEIGADRILFSTDWPFENIDHAADWFNATSIAEADRVKIGRTNARRLFKLDGA | 1.9 | 1.2
253 (protein, Dicamba decarboxylase variant) MAQGKVALEEHFAIPETLQDSAGFVPGDYWKELQHRLLDIQDTRLKLMDAHGIETMILSLAAPAVQAIPDRVKAIEIARRANDFLAEECAKRPDRFLAFAALPLQDPDAATEELQRCVNDLGFVGALVNGFSQEGDGQTPLYYDLPQYRPFWGEVEKLDVPFYLHPRNPLPQDSRIYDGHPWLLGPTWAFAQETAVHALRLMASGLFDEHPRLNIILGHMGEGLPYMMYRIDHRIAWVKLPPRYPAKRRFMDYFNENFHITTSGNFRTQTLIDAILEIGADRILFSTDWPFENIDHAADWFNATSIAEADRVKIGRTNARRLFKLDGD | 0.9 | 1.7
209 (protein, Dicamba decarboxylase variant) MAQGKVALEEHFAIPETLNDSAGFVPGDYWKELQHRLLDIQDTRLKLMDAHGIETMILSLAAPAVQAIPDRRKAIEIARRANDFLAEECAKRPDRFLAFAALPLQDPDAATEELQRTVNDLGFVGALVNGFSVEGDGQTPLYYDLPQYRPFWGEVEKLDVPFYLHPRNPLPQDSRIYDGHPWLLGPTWAFAQETAVHALRLMASGLFDEHPRLNIILGHMGEGLPYMMYRIDHRIAWVHEPPRYPAKRRFMDYFNENFHITTSGNFRTQTLIDAILEIGADRILFSTDWPFENIDHAADWFNATSIAEADRVKIGRTNARRLFKLDGD | 1.6 | 1.3
207 (protein, Dicamba decarboxylase variant) MAQGKVALEEHFAIPETLQDSAGFVPGDYWKELQHRLLDIQDTRLKLMDAHGIETMILSLAAPAVQAIPDRRKAIEIARRANDFLAEECAKRPDRFLAFAALPLQDPDAATEELQRCVNDLGFVGALVNGFSVEGDGQTPLYYDLPQYRPFWGEVEKLDVPFYLHPRNPLPQDSRIYDGHPWLLGPTWAFAQETAVHALRLMASGLFDEHPRLNIILGHMGEGLPYMMYRIDHRIAWVHEPPRYPAKRRFMDYFNENFHITTSGNFRTQTLIDAILEIGADRILFSTDWPFENIDHAAAWFNATSIAEADRVKIGRTNARRLFKLDLD | 1.3 | 1.4
256 (protein, Dicamba decarboxylase variant) MAQGKVALEEHFAIPETLQDSAGFVPGDYWKELQHRLLDIQDTRLNLMDAHGIETMILSLAAPAVQAIPDRRKAIEIARRANDFLAEECAKRPDRFLAFAALPLQDPDAATEELQRCVNDLGFVGALVNGFSQEGDGQTPLYYDLPQYRPFWGEVEKLDVPFYLHPRNPLPQDSRIYDGHPWLLGPTWAFAQETAVHALRLMASGLFDEHPRLNIILGHMGEGLPYMMYRIDHRIAWVHEPPRYPAKRRFMDYFNENFHITTSGNFRTQTLIDAILEIGADRILFSTDWPFENIDHAADWFNATSIAEADRVKIGRTNARRLFKLDVD | 1.7 | 1.0
250 (protein, Dicamba decarboxylase variant) MAQGKVALEEHFAIPETLQDSAGFVPGDYWKELQHRLLDIQDTRLKLMDAHGIETMILSLAAPAVQAIPDRRKAIEIARRANDMLAEECAKRPDRFLAFAALPLQDPDAATEELQRCVNDLGFVGALVNGFSQEGDGQTPLYYDLPQYRPFWGEVEKLDVPFYLHPRNPLPQDSRIYDGHPWLLGPTWAFAQETAVHALRLMASGLFDEHPRLNIILGHMGEGLPYMMYRIDHRIAWVHEPPRYPAKRRFMDYFNENFHITTSGNFRTQTLIDAILEIGADRILFSTDWPFENIDHAADWFNATSIAEADRVKIGRTNARRLFKLDGD | 0.7 | 0.8

Source: patent US20160053277A1, “Compositions Having Dicamba Decarboxylase Activity and Methods of Use” (PIONEER HI-BRED INTERNATIONAL, INC., priority 2013, published 2016)
